Test results from patent US7183387 (Genentech, dated 2007).

Key:
[1] = biological target: T1, human FcγRIIA-R131 α subunit extracellular domain-His6-GST fusion (human, UniProt P12318 34-217); assay: ELISA, IgG complex, receptor coated
T1 construct: ECD-6His-GST fusion made in 293 cells; also called FcγRIIA-Arg131; not shown: glutathione S transferase (GST)
T1 sequence: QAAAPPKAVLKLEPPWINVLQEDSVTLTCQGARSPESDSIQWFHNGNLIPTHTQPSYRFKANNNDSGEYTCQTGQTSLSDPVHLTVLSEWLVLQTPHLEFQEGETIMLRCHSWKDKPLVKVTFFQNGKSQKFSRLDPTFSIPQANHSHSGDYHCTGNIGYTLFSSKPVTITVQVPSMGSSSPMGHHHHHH

[2] = biological target: T2, human FcγRIIIA-F158 α subunit extracellular domain-His6-GST fusion (human, UniProt P08637 17-208); assay: ELISA, IgG complex, receptor coated
T2 construct: ECD-6His-GST fusion made in 293 cells; also called FcγRIIIA-Phe158; not shown: glutathione S transferase (GST)
T2 sequence (P08637 other isoform, or with tags, fused parts or gaps, form in doubt): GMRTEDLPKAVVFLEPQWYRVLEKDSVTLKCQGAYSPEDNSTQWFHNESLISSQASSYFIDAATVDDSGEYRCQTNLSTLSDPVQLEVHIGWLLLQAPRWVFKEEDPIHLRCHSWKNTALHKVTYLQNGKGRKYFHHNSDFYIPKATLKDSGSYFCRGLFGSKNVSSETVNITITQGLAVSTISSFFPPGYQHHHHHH

[3] = biological target: T3, human FcγRIIIA-V158 α subunit extracellular domain-His6-GST fusion (human, UniProt P08637 17-208); assay: ELISA, IgG complex, receptor coated
T3 construct: ECD-6His-GST fusion made in 293 cells; also called FcγRIIIA-Val158; not shown: glutathione S transferase (GST)
T3 sequence (P08637 other isoform, or with tags, fused parts or gaps, form in doubt): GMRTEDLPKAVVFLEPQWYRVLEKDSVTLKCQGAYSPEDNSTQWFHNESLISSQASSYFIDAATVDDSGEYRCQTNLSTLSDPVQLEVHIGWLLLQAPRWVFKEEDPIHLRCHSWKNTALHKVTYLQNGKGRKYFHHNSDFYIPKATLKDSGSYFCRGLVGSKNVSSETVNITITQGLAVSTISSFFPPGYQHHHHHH

[4] = biological target: T3, human FcγRIIIA-V158 α subunit …; assay: ELISA, IgG monomer, receptor coated

B1: anti-IgE E27 IgG1 variant K334(353)A (antibody)
heavy: not shown
light: DIQLTQSPSSLSASVGDRVTITCRASKPVDGEGDSYLNWYQQKPGKAPKLLIYAASYLESGVPSRFSGSGSGTDFTLTISSLQPEDFATYYCQQSHEDPYTFGQGTKVEIKRTVAAPSVFIFPPSDEQLKSGTASVVCLLNNFYPREAKVQWKVDNALQSGNSQESVTEQDSKDSTYSLSSTLTLSKADYEKHKVYACEVTHQGLSSPVTKSFNRGEC
notes: Fc variant of E27; also called IG2 55; G55
ratio of binding, variant/native IgG1 (mean) [1]: 1.01 ratio | ratio of binding, variant/native IgG1 (mean) [2]: 1.39 ratio | ratio of binding, variant/native IgG1 (mean) [3]: 1.07 ratio | ratio of binding, variant/native IgG1 (mean) [4]: 1.6 ratio

B2: anti-IgE E27 IgG1 variant D265(278)A (antibody)
heavy: not shown
light: DIQLTQSPSSLSASVGDRVTITCRASKPVDGEGDSYLNWYQQKPGKAPKLLIYAASYLESGVPSRFSGSGSGTDFTLTISSLQPEDFATYYCQQSHEDPYTFGQGTKVEIKRTVAAPSVFIFPPSDEQLKSGTASVVCLLNNFYPREAKVQWKVDNALQSGNSQESVTEQDSKDSTYSLSSTLTLSKADYEKHKVYACEVTHQGLSSPVTKSFNRGEC
notes: Fc variant of E27; also called IG2 14; G14
ratio of binding, variant/native IgG1 (mean) [1]: 0.07 ratio | ratio of binding, variant/native IgG1 (mean) [2]: 0.09 ratio | ratio of binding, variant/native IgG1 (mean) [3]: 0.01 ratio

B3: anti-IgE E27 IgG1 variant E293(310)Q (antibody)
heavy: not shown
light: DIQLTQSPSSLSASVGDRVTITCRASKPVDGEGDSYLNWYQQKPGKAPKLLIYAASYLESGVPSRFSGSGSGTDFTLTISSLQPEDFATYYCQQSHEDPYTFGQGTKVEIKRTVAAPSVFIFPPSDEQLKSGTASVVCLLNNFYPREAKVQWKVDNALQSGNSQESVTEQDSKDSTYSLSSTLTLSKADYEKHKVYACEVTHQGLSSPVTKSFNRGEC
notes: Fc variant of E27
ratio of binding, variant/native IgG1 (mean) [1]: 0.85 ratio | ratio of binding, variant/native IgG1 (mean) [2]: 0.99 ratio | ratio of binding, variant/native IgG1 (mean) [3]: 1 ratio | ratio of binding, variant/native IgG1 (mean) [4]: 0.97 ratio

B4: anti-IgE E27 IgG1 variant E333(352)A (antibody)
heavy: not shown
light: DIQLTQSPSSLSASVGDRVTITCRASKPVDGEGDSYLNWYQQKPGKAPKLLIYAASYLESGVPSRFSGSGSGTDFTLTISSLQPEDFATYYCQQSHEDPYTFGQGTKVEIKRTVAAPSVFIFPPSDEQLKSGTASVVCLLNNFYPREAKVQWKVDNALQSGNSQESVTEQDSKDSTYSLSSTLTLSKADYEKHKVYACEVTHQGLSSPVTKSFNRGEC
notes: Fc variant of E27; also called IG2 54; G54
ratio of binding, variant/native IgG1 (mean) [1]: 0.92 ratio | ratio of binding, variant/native IgG1 (mean) [2]: 1.27 ratio | ratio of binding, variant/native IgG1 (mean) [3]: 1.1 ratio | ratio of binding, variant/native IgG1 (mean) [4]: 1.29 ratio

B5: anti-IgE E27 IgG1 variant E333(352)D (antibody)
heavy: not shown
light: DIQLTQSPSSLSASVGDRVTITCRASKPVDGEGDSYLNWYQQKPGKAPKLLIYAASYLESGVPSRFSGSGSGTDFTLTISSLQPEDFATYYCQQSHEDPYTFGQGTKVEIKRTVAAPSVFIFPPSDEQLKSGTASVVCLLNNFYPREAKVQWKVDNALQSGNSQESVTEQDSKDSTYSLSSTLTLSKADYEKHKVYACEVTHQGLSSPVTKSFNRGEC
notes: Fc variant of E27; also called Glu333Asp
ratio of binding, variant/native IgG1 (mean) [2]: 1.26 ratio | ratio of binding, variant/native IgG1 (mean) [3]: 1 ratio | ratio of binding, variant/native IgG1 (mean) [4]: 1.7 ratio

B6: anti-IgE E27 IgG1 variant E333(352)K (antibody)
heavy: not shown
light: DIQLTQSPSSLSASVGDRVTITCRASKPVDGEGDSYLNWYQQKPGKAPKLLIYAASYLESGVPSRFSGSGSGTDFTLTISSLQPEDFATYYCQQSHEDPYTFGQGTKVEIKRTVAAPSVFIFPPSDEQLKSGTASVVCLLNNFYPREAKVQWKVDNALQSGNSQESVTEQDSKDSTYSLSSTLTLSKADYEKHKVYACEVTHQGLSSPVTKSFNRGEC
notes: Fc variant of E27
ratio of binding, variant/native IgG1 (mean) [2]: 0.85 ratio | ratio of binding, variant/native IgG1 (mean) [3]: 0.88 ratio | ratio of binding, variant/native IgG1 (mean) [4]: 0.81 ratio

B7: anti-IgE E27 IgG1 variant E333(352)N (antibody)
heavy: not shown
light: DIQLTQSPSSLSASVGDRVTITCRASKPVDGEGDSYLNWYQQKPGKAPKLLIYAASYLESGVPSRFSGSGSGTDFTLTISSLQPEDFATYYCQQSHEDPYTFGQGTKVEIKRTVAAPSVFIFPPSDEQLKSGTASVVCLLNNFYPREAKVQWKVDNALQSGNSQESVTEQDSKDSTYSLSSTLTLSKADYEKHKVYACEVTHQGLSSPVTKSFNRGEC
notes: Fc variant of E27; also called Glu333Asn
ratio of binding, variant/native IgG1 (mean) [1]: 0.59 ratio | ratio of binding, variant/native IgG1 (mean) [2]: 0.56 ratio | ratio of binding, variant/native IgG1 (mean) [3]: 0.64 ratio | ratio of binding, variant/native IgG1 (mean) [4]: 0.56 ratio

B8: anti-IgE E27 IgG1 variant E333(352)Q (antibody)
heavy: not shown
light: DIQLTQSPSSLSASVGDRVTITCRASKPVDGEGDSYLNWYQQKPGKAPKLLIYAASYLESGVPSRFSGSGSGTDFTLTISSLQPEDFATYYCQQSHEDPYTFGQGTKVEIKRTVAAPSVFIFPPSDEQLKSGTASVVCLLNNFYPREAKVQWKVDNALQSGNSQESVTEQDSKDSTYSLSSTLTLSKADYEKHKVYACEVTHQGLSSPVTKSFNRGEC
notes: Fc variant of E27
ratio of binding, variant/native IgG1 (mean) [1]: 0.7 ratio | ratio of binding, variant/native IgG1 (mean) [2]: 1.1 ratio | ratio of binding, variant/native IgG1 (mean) [3]: 1.05 ratio | ratio of binding, variant/native IgG1 (mean) [4]: 1 ratio

B9: anti-IgE E27 IgG1 variant E333(352)R (antibody)
heavy: not shown
light: DIQLTQSPSSLSASVGDRVTITCRASKPVDGEGDSYLNWYQQKPGKAPKLLIYAASYLESGVPSRFSGSGSGTDFTLTISSLQPEDFATYYCQQSHEDPYTFGQGTKVEIKRTVAAPSVFIFPPSDEQLKSGTASVVCLLNNFYPREAKVQWKVDNALQSGNSQESVTEQDSKDSTYSLSSTLTLSKADYEKHKVYACEVTHQGLSSPVTKSFNRGEC
notes: Fc variant of E27
ratio of binding, variant/native IgG1 (mean) [1]: 0.75 ratio | ratio of binding, variant/native IgG1 (mean) [2]: 0.84 ratio | ratio of binding, variant/native IgG1 (mean) [3]: 0.92 ratio | ratio of binding, variant/native IgG1 (mean) [4]: 0.83 ratio

B10: anti-IgE E27 IgG1 variant E333(352)S (antibody)
heavy: not shown
light: DIQLTQSPSSLSASVGDRVTITCRASKPVDGEGDSYLNWYQQKPGKAPKLLIYAASYLESGVPSRFSGSGSGTDFTLTISSLQPEDFATYYCQQSHEDPYTFGQGTKVEIKRTVAAPSVFIFPPSDEQLKSGTASVVCLLNNFYPREAKVQWKVDNALQSGNSQESVTEQDSKDSTYSLSSTLTLSKADYEKHKVYACEVTHQGLSSPVTKSFNRGEC
notes: Fc variant of E27; also called IG2 143
ratio of binding, variant/native IgG1 (mean) [2]: 0.94 ratio | ratio of binding, variant/native IgG1 (mean) [3]: 0.99 ratio | ratio of binding, variant/native IgG1 (mean) [4]: 1.07 ratio

B11: anti-IgE E27 IgG1 variant K334(353)D (antibody)
heavy: not shown
light: DIQLTQSPSSLSASVGDRVTITCRASKPVDGEGDSYLNWYQQKPGKAPKLLIYAASYLESGVPSRFSGSGSGTDFTLTISSLQPEDFATYYCQQSHEDPYTFGQGTKVEIKRTVAAPSVFIFPPSDEQLKSGTASVVCLLNNFYPREAKVQWKVDNALQSGNSQESVTEQDSKDSTYSLSSTLTLSKADYEKHKVYACEVTHQGLSSPVTKSFNRGEC
notes: Fc variant of E27; also called IG2 140
ratio of binding, variant/native IgG1 (mean) [1]: 0.51 ratio | ratio of binding, variant/native IgG1 (mean) [2]: 1.13 ratio | ratio of binding, variant/native IgG1 (mean) [3]: 1.07 ratio

B12: anti-IgE E27 IgG1 variant R292(309)N (antibody)
heavy: not shown
light: DIQLTQSPSSLSASVGDRVTITCRASKPVDGEGDSYLNWYQQKPGKAPKLLIYAASYLESGVPSRFSGSGSGTDFTLTISSLQPEDFATYYCQQSHEDPYTFGQGTKVEIKRTVAAPSVFIFPPSDEQLKSGTASVVCLLNNFYPREAKVQWKVDNALQSGNSQESVTEQDSKDSTYSLSSTLTLSKADYEKHKVYACEVTHQGLSSPVTKSFNRGEC
notes: Fc variant of E27; also called IG2 83
ratio of binding, variant/native IgG1 (mean) [1]: 0.54 ratio | ratio of binding, variant/native IgG1 (mean) [2]: 0.88 ratio | ratio of binding, variant/native IgG1 (mean) [4]: 0.91 ratio

B13: anti-IgE E27 IgG1 variant R292(309)Q (antibody)
heavy: not shown
light: DIQLTQSPSSLSASVGDRVTITCRASKPVDGEGDSYLNWYQQKPGKAPKLLIYAASYLESGVPSRFSGSGSGTDFTLTISSLQPEDFATYYCQQSHEDPYTFGQGTKVEIKRTVAAPSVFIFPPSDEQLKSGTASVVCLLNNFYPREAKVQWKVDNALQSGNSQESVTEQDSKDSTYSLSSTLTLSKADYEKHKVYACEVTHQGLSSPVTKSFNRGEC
notes: Fc variant of E27; also called IG2 82
ratio of binding, variant/native IgG1 (mean) [1]: 0.47 ratio | ratio of binding, variant/native IgG1 (mean) [2]: 0.45 ratio | ratio of binding, variant/native IgG1 (mean) [4]: 0.56 ratio

B14: anti-IgE E27 IgG1 variant S298(317)A/E333(352)A/K334(353)A (antibody)
heavy: EVQLVESGGGLVQPGGSLRLSCAVSGYSITSGYSWNWIRQAPGKGLEWVASIKYSGETKYNPSVKGRITISRDDSKNTFYLQMNSLRAEDTAVYYCARGSHYFGHWHFAVWGQGTLVTVSSASTKGPSVFPLAPSSKSTSGGTAALGCLVKDYFPEPVTVSWNSGALTSGVHTFPAVLQSSGLYSLSSVVTVPSSSLGTQTYICNVNHKPSNTKVDKKVEPKSCDKTHTCPPCPAPELLGGPSVFLFPPKPKDTLMISRTPEVTCVVVDVSHEDPEVKFNWYVDGVEVHNAKTKPREEQYNATYRVVSVLTVLHQDWLNGKEYKCKVSNKALPAPIAATISKAKGQPREPQVYTLPPSREEMTKNQVSLTCLVKGFYPSDIAVEWESNGQPENNYKTTPPVLDSDGSFFLYSKLTVDKSRWQQGNVFSCSVMHEALHNHYTQKSLSLSPGK
light: DIQLTQSPSSLSASVGDRVTITCRASKPVDGEGDSYLNWYQQKPGKAPKLLIYAASYLESGVPSRFSGSGSGTDFTLTISSLQPEDFATYYCQQSHEDPYTFGQGTKVEIKRTVAAPSVFIFPPSDEQLKSGTASVVCLLNNFYPREAKVQWKVDNALQSGNSQESVTEQDSKDSTYSLSSTLTLSKADYEKHKVYACEVTHQGLSSPVTKSFNRGEC
notes: Fc variant of E27; also called IG2 110; Ser298Ala/Glu333Ala/Lys334Ala
ratio of binding, variant/native IgG1 (mean) [1]: 0.35 ratio | ratio of binding, variant/native IgG1 (mean) [2]: 1.66 ratio | ratio of binding, variant/native IgG1 (mean) [3]: 1.19 ratio

B15: anti-IgE E27 IgG1 variant S298(317)V (antibody)
heavy: not shown
light: DIQLTQSPSSLSASVGDRVTITCRASKPVDGEGDSYLNWYQQKPGKAPKLLIYAASYLESGVPSRFSGSGSGTDFTLTISSLQPEDFATYYCQQSHEDPYTFGQGTKVEIKRTVAAPSVFIFPPSDEQLKSGTASVVCLLNNFYPREAKVQWKVDNALQSGNSQESVTEQDSKDSTYSLSSTLTLSKADYEKHKVYACEVTHQGLSSPVTKSFNRGEC
notes: Fc variant of E27; also called IG2 218
ratio of binding, variant/native IgG1 (mean) [2]: 0.33 ratio | ratio of binding, variant/native IgG1 (mean) [3]: 0.88 ratio | ratio of binding, variant/native IgG1 (mean) [4]: 0.39 ratio
